Where two headings read alike, the source gives them in different places.
Test system: rabbit red blood cells
Conditions: 37° C., 1 h, FIG. 6

TrSub (EFGAGKAQCAAAWLQCASGGTLGCGGGAVACQNYRQFQCRAA; the amino acid sequence of the recombinant antimicrobial peptide TrSub)
hemolytic activity (hemolysis rate) (2MIC concentration): below 10% | hemolytic activity (hemolysis rate) (MIC concentration): below 10%
